Test results from paper PMC5603418 (The FEBS journal, 2017).

What was measured:
[1] = biological target: T1, Bdellovibrio bacteriovorus proline utilization A (BbPutA) (Bdellovibrio bacteriovorus, UniProt Q6MNK1); assay: X-ray crystal structure, […] Å, of the covalently inactivated enzyme; type: binding
T1 sequence (Q6MNK1 1-982): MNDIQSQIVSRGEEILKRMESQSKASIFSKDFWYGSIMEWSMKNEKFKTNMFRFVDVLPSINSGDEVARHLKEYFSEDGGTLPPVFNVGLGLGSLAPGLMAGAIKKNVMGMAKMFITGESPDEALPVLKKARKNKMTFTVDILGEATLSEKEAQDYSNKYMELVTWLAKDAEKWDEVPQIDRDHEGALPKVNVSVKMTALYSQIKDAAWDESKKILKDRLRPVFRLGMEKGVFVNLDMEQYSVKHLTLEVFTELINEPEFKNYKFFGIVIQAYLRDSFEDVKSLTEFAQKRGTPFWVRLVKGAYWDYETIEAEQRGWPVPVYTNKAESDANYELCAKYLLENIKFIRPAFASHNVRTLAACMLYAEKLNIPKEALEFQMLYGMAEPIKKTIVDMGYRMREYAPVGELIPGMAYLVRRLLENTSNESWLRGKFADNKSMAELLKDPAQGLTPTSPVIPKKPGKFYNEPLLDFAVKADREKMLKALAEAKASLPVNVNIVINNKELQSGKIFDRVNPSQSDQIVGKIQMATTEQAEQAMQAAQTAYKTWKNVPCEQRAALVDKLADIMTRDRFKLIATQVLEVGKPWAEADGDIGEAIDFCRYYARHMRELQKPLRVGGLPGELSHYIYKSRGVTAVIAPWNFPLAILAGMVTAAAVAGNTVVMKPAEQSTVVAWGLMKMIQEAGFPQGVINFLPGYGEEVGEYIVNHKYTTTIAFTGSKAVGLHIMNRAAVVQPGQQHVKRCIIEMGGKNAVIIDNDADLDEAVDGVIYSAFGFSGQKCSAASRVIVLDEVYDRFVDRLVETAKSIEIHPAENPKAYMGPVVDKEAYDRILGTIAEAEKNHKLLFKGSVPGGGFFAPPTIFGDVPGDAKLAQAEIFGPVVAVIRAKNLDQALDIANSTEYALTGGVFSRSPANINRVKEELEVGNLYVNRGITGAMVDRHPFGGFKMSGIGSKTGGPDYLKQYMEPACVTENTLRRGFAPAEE

[2] = biological target: Desulfovibrio vulgaris proline utilization A (Desulfovibrio vulgaris str. Hildenborough); assay: SAXS
[3] = biological target: the molecule itself; assay: AUC
[4] = biological target: the molecule itself; assay: SAXS
[5] = biological target: the molecule itself; assay: AUC; remark: listed apart in the source

## C#CCNCC(=O)O [compound 1, N-propargylglycine]
[1]
  X-ray crystal structure, 2.2 Å, of the covalently inactivated enzyme: 3-carbon link between Lys196 and the N5 of the FAD consistent with the presence of a covalent NPPG modification

## Desulfovibrio vulgaris proline utilization A (enzyme)
[2]
  stoichiometry N: 2

B1: Bradyrhizobium japonicum proline utilization A (enzyme, UniProt Q89E26 1-999, looked up)
chain: MPNIPPPFTAPYAPDDAEIAARLLPASHLSPPQEARIHRTATRLIEAIRKRDDRLGGVEDMLREFALSTKEGLALMVLAEALLRVPDARTADQFIEDKLGEGDFIHHETKSTAFLVNASAWALGLSARVIQPGETPDGTIGRLVKRLGAPAVRTATRQAMRLMGNHFVLGETIEQALERGKPRSGQKTRYSFDMLGEGARTAADARRYFDAYASAIETIGKAAGNHALPDRPGISVKLSALHPRFEAISRARVMVELVPQLLDLAQRAKAHDLNFTVDAEEADRLELSLDVIAATLADPSLKGWDGFGLAIQAYQKRASAVIDYVDALARAHDRKLMVRLVKGAYWDTEIKRAQERGLDGYPVFTRKAMTDLNYVACASKLLALRPRIFPQFATHNALTVATVLEMAEGSSGFEFQRLHGMGEALYEQLAKDHADIAYRTYAPVGSHRDLLAYLVRRLLENGANSSFVAQAADYRVPVPALLQRPADAIVRPQAAAHPRIPLPCDLFAPERRNSRGVEFGARTALDQLLTDVKAETGDLKPIADATPDQAHAAVAAARAGFAGWSRTPAGIRAAALEQAAHLLESRSAHFIALLQREGGKTLDDALSELREAADFCRYYAAQGRKLFGSETAMPGPTGESNALTMRGRGVFVAISPWNFPLAIFLGQVTAALMAGNSVVAKPAEQTPRIAREAVALLHEAGIPKSALYLVTGDGRIGAALTAHPDIAGVVFTGSTEVARSINRALAAKDGPIVPLIAETGGINAMIADATALPEQVADDVVTSAFRSAGQRCSALRLLFVQEDVADRMIEMVAGAARELKIGDPSDVATHVGPVIDVEAKQRLDAHIARMKTEARLHFAGPAPEGCFVAPHIFELTEAGQLTEEVFGPILHVVRYRPENLERVLRAIERTGYGLTLGVHSRIDDSIEAIIDRVQVGNIYVNRNMIGAVVGVQPFGGNGLSGTGPKAGGPHYLARFATEQTVTINTAAAGGNAALLAGEE
[3]
  stoichiometry N: 4

B2: Bdellovibrio bacteriovorus proline utilization A (enzyme, Bdellovibrio bacteriovorus HD100, UniProt Q6MNK1 1-982, looked up)
chain: MNDIQSQIVSRGEEILKRMESQSKASIFSKDFWYGSIMEWSMKNEKFKTNMFRFVDVLPSINSGDEVARHLKEYFSEDGGTLPPVFNVGLGLGSLAPGLMAGAIKKNVMGMAKMFITGESPDEALPVLKKARKNKMTFTVDILGEATLSEKEAQDYSNKYMELVTWLAKDAEKWDEVPQIDRDHEGALPKVNVSVKMTALYSQIKDAAWDESKKILKDRLRPVFRLGMEKGVFVNLDMEQYSVKHLTLEVFTELINEPEFKNYKFFGIVIQAYLRDSFEDVKSLTEFAQKRGTPFWVRLVKGAYWDYETIEAEQRGWPVPVYTNKAESDANYELCAKYLLENIKFIRPAFASHNVRTLAACMLYAEKLNIPKEALEFQMLYGMAEPIKKTIVDMGYRMREYAPVGELIPGMAYLVRRLLENTSNESWLRGKFADNKSMAELLKDPAQGLTPTSPVIPKKPGKFYNEPLLDFAVKADREKMLKALAEAKASLPVNVNIVINNKELQSGKIFDRVNPSQSDQIVGKIQMATTEQAEQAMQAAQTAYKTWKNVPCEQRAALVDKLADIMTRDRFKLIATQVLEVGKPWAEADGDIGEAIDFCRYYARHMRELQKPLRVGGLPGELSHYIYKSRGVTAVIAPWNFPLAILAGMVTAAAVAGNTVVMKPAEQSTVVAWGLMKMIQEAGFPQGVINFLPGYGEEVGEYIVNHKYTTTIAFTGSKAVGLHIMNRAAVVQPGQQHVKRCIIEMGGKNAVIIDNDADLDEAVDGVIYSAFGFSGQKCSAASRVIVLDEVYDRFVDRLVETAKSIEIHPAENPKAYMGPVVDKEAYDRILGTIAEAEKNHKLLFKGSVPGGGFFAPPTIFGDVPGDAKLAQAEIFGPVVAVIRAKNLDQALDIANSTEYALTGGVFSRSPANINRVKEELEVGNLYVNRGITGAMVDRHPFGGFKMSGIGSKTGGPDYLKQYMEPACVTENTLRRGFAPAEE
[4]
  stoichiometry N: 2

B3: Bdellovibrio bacteriovorus proline utilization A inactivated by N-propargylglycine (enzyme, Bdellovibrio bacteriovorus HD100, UniProt Q6MNK1 1-982, looked up)
chain: MNDIQSQIVSRGEEILKRMESQSKASIFSKDFWYGSIMEWSMKNEKFKTNMFRFVDVLPSINSGDEVARHLKEYFSEDGGTLPPVFNVGLGLGSLAPGLMAGAIKKNVMGMAKMFITGESPDEALPVLKKARKNKMTFTVDILGEATLSEKEAQDYSNKYMELVTWLAKDAEKWDEVPQIDRDHEGALPKVNVSVKMTALYSQIKDAAWDESKKILKDRLRPVFRLGMEKGVFVNLDMEQYSVKHLTLEVFTELINEPEFKNYKFFGIVIQAYLRDSFEDVKSLTEFAQKRGTPFWVRLVKGAYWDYETIEAEQRGWPVPVYTNKAESDANYELCAKYLLENIKFIRPAFASHNVRTLAACMLYAEKLNIPKEALEFQMLYGMAEPIKKTIVDMGYRMREYAPVGELIPGMAYLVRRLLENTSNESWLRGKFADNKSMAELLKDPAQGLTPTSPVIPKKPGKFYNEPLLDFAVKADREKMLKALAEAKASLPVNVNIVINNKELQSGKIFDRVNPSQSDQIVGKIQMATTEQAEQAMQAAQTAYKTWKNVPCEQRAALVDKLADIMTRDRFKLIATQVLEVGKPWAEADGDIGEAIDFCRYYARHMRELQKPLRVGGLPGELSHYIYKSRGVTAVIAPWNFPLAILAGMVTAAAVAGNTVVMKPAEQSTVVAWGLMKMIQEAGFPQGVINFLPGYGEEVGEYIVNHKYTTTIAFTGSKAVGLHIMNRAAVVQPGQQHVKRCIIEMGGKNAVIIDNDADLDEAVDGVIYSAFGFSGQKCSAASRVIVLDEVYDRFVDRLVETAKSIEIHPAENPKAYMGPVVDKEAYDRILGTIAEAEKNHKLLFKGSVPGGGFFAPPTIFGDVPGDAKLAQAEIFGPVVAVIRAKNLDQALDIANSTEYALTGGVFSRSPANINRVKEELEVGNLYVNRGITGAMVDRHPFGGFKMSGIGSKTGGPDYLKQYMEPACVTENTLRRGFAPAEE
modifications: Lys196 covalently linked to the N5 atom of the FAD by a 3-carbon link (inactivation by N-propargylglycine)
[5]
  stoichiometry N: 2
